Measured values published in patent publication US20100298539A1.
“And” between values parts separate entries of the source, which are not always exact repeats. Equal values may be shown once.

These substances were tested against human C5a receptor (C5aR) (human) (UniProt P21730) (assay: flow cytometry on U937/C5aR cells, 2H7 detection).
Chain of human C5a receptor (C5aR) (human) (P21730 whole entry, the tested form may be a part): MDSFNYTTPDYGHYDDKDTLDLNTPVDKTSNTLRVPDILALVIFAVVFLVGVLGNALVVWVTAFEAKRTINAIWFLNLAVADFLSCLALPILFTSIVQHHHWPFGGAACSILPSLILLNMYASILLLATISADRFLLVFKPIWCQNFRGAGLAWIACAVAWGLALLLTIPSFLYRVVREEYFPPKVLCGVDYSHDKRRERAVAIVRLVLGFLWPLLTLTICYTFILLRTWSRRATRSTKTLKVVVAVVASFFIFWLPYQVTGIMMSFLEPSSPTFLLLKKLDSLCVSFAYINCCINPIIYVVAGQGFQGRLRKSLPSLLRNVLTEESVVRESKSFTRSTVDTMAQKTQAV
Substance “Chemotaxis Inhibitory Protein of Staphylococcus aureus (CHIPS), wildtype, amino acids 1-121 (from UniProt A6QIG7 29-149)” has a Binding U937cells C5aR (0.3 µg/ml) % of wt 1-112 of 28%.

The substances below were run against CD88-N-term peptide ABCF-1 (biotinylated C5aR peptide) (UniProt P21730) (assay: C5aR peptide ELISA).
Chain of CD88-N-term peptide ABCF-1 (biotinylated C5aR peptide) (P21730 7-28 limits assumed): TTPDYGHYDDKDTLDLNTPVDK
“CHIPS K69A control (lysate), A6QIG7 29-140” showed a specific activity (%) of 116%. “CHIPS clone 1F8 (Y48H, D83G, L90P), A6QIG7 29-140” gave a specific activity (%) of 93%. With “CHIPS clone 2C9 (K54R, K69R, K100R, K105R), A6QIG7 29-140” the specific activity (%) was 115%. “CHIPS clone 2D5 (K40E, K69A, N111K, G112V), A6QIG7 29-138” was tested, and the specific activity (%) was 132%. With “CHIPS clone 2H5 (K69A, K100R, K101R), A6QIG7 29-140” the specific activity (%) was 113%. For “CHIPS clone 3C4 (K69A, G112V), A6QIG7 29-139”, the specific activity (%) was 94%. In the case of “CHIPS clone 3H1 (G112V) (from UniProt A6QIG7 29-139) (other; other documents disagree on this pair)”, the specific activity (%) is reported as 109%. For CHIPS clone 4E5 (K69T), A6QIG7 29-140, the specific activity (%) was 76%. For CHIPS clone 5H1 (K50N), A6QIG7 29-140, the specific activity (%) was 88%. CHIPS clone 6E1 (S104Y), A6QIG7 29-140 gave a specific activity (%) of 76%. For “CHIPS clone 7B3 (N111I) (from UniProt A6QIG7 29-140) (other; other documents disagree on this pair)”, the specific activity (%) was 140%. In the case of “CHIPS clone 7E4 (K40N, K92R), A6QIG7 29-140”, the specific activity (%) is reported as 65%. Substance “CHIPSwt control (lysate) (from UniProt A6QIG7 29-149) (other; other documents disagree on this pair)” has a specific activity (%) of 106%.

These substances were tested against human C5a receptor (C5aR) (human) (UniProt P21730) (assay: dual fMLP-F/α-C5aR-PE flow cytometry on neutrophils).
Substance “Chemotaxis Inhibitory Protein of Staphylococcus aureus (CHIPS), wildtype, amino acids 1-121 (from UniProt A6QIG7 29-149)” has a Dual bind PMN (%) of 112%.

What follows are substances tested against human C5a receptor (C5aR) (human) (UniProt P21730) (assay: not given).
For “Chemotaxis Inhibitory Protein of Staphylococcus aureus (CHIPS), wildtype, amino acids 1-121 (from UniProt A6QIG7 29-149)”, the IC50 (read off the curve) was 0.07 ng/mL.

These substances were tested against CD88-N-term peptide ABCF-1 (biotinylated C5aR peptide) (UniProt P21730) (assay: C5aR peptide ELISA, lysate).
With “CHIPS E67A (from UniProt A6QIG7 29-149) (other; other documents disagree on this pair)” the pept-ELISA bindn (%) was 52% and 39%. For “CHIPS G33A (from UniProt A6QIG7 29-149) (other; other documents disagree on this pair)”, the pept-ELISA bindn (%) was 13%. With “CHIPS G52A (from UniProt A6QIG7 29-149) (other; other documents disagree on this pair)” the pept-ELISA bindn (%) was 19% and 20%. “CHIPS K69A control (lysate), A6QIG7 29-140” was tested, and the Abs 492 nm was 1.41 and 1.39, the Pep. bind. was 126 ng/mL and 120 ng/mL and the Pep. bind. Log (ng/ml) was 2.1 log ng/ml and 2.08 log ng/ml. For the same substance, the Spec. activity pep/expr (%) was 116% and 112% and the pept-ELISA bindn (%) was 15%. “CHIPS L34A (from UniProt A6QIG7 29-149) (other; other documents disagree on this pair)” was tested, and the pept-ELISA bindn (%) was 13% and 12%. For “CHIPS L76A (from UniProt A6QIG7 29-149) (other; other documents disagree on this pair)”, the pept-ELISA bindn (%) was 1% and 2%. In the case of “CHIPS L90A (from UniProt A6QIG7 29-149) (other; other documents disagree on this pair)”, the pept-ELISA bindn (%) is reported as 25% and 24%. “CHIPS N31A (from UniProt A6QIG7 29-149) (other; other documents disagree on this pair)” was tested, and the pept-ELISA bindn (%) was 16% and 23%. “CHIPS N55A (from UniProt A6QIG7 29-149) (other; other documents disagree on this pair)” was tested, and the pept-ELISA bindn (%) was 8% and 9%. With “CHIPS P35A (from UniProt A6QIG7 29-149) (other; other documents disagree on this pair)” the pept-ELISA bindn (%) was 54% and 68%. For “CHIPS P79A (from UniProt A6QIG7 29-149) (other; other documents disagree on this pair)”, the pept-ELISA bindn (%) was 28% and 25%. “CHIPS Q58A (from UniProt A6QIG7 29-149) (other; other documents disagree on this pair)” was tested, and the pept-ELISA bindn (%) was 2% and 3%. For “CHIPS S32A (from UniProt A6QIG7 29-149) (other; other documents disagree on this pair)”, the pept-ELISA bindn (%) was 15%. With “CHIPS S56A (from UniProt A6QIG7 29-149) (other; other documents disagree on this pair)” the pept-ELISA bindn (%) was 18% and 16%. Work on “CHIPS S107A (from UniProt A6QIG7 29-149) (other; other documents disagree on this pair)” yielded a pept-ELISA bindn (%) of 11%. Substance “CHIPS T53A (from UniProt A6QIG7 29-149) (other; other documents disagree on this pair)” has a pept-ELISA bindn (%) of 7%. “CHIPS Y48A (from UniProt A6QIG7 29-149) (other; other documents disagree on this pair)” was tested, and the pept-ELISA bindn (%) was 86% and 70%. In the case of “CHIPS Y108A (from UniProt A6QIG7 29-149) (other; other documents disagree on this pair)”, the pept-ELISA bindn (%) is reported as 1%. For “CHIPSwt control (lysate) (from UniProt A6QIG7 29-149) (other; other documents disagree on this pair)”, the Abs 492 nm was 1.48 and 1.41, the Pep. bind. was 155 ng/mL and 126 ng/mL and the Pep. bind. Log (ng/ml) was 2.19 log ng/ml and 2.1 log ng/ml. The Spec. activity pep/expr (%) was 119% and 106% and the pept-ELISA bindn (%) was 21%.
